Test results taken from US6359194 (Takeda / Millennium, dated 2002).

B1: GAL4 activation domain fusion to SV40 (other)
chain: PTYGTDEWEQWWNAFNEENLFCSEEMPSSDDEATADSQHSTPPKKKRKVEDPKDFPSELLSFLSHAVFSNRTLACFAIYTTKEKAALLYKKIMEKYSVTFISRHNSYNHNILFFLTPHRHRVSAINNYAQKLCTFSFLICKGVNKEYLMYSALTRDPFSVIEESLPGGLKEHDFNPEEAEETKQVSWKLVTEYAMETKCDDVLLLLGMYLEFQYSFEMCLKCIKKEQPSHYKYHEKHYANAAIFADSKNQKTICQQAVDTVLAKKRVDSLQLTREQMLTNRFNDLLDRMDIMFGSTGSADIEEWMAGVAWLHCLLPKMDSVVYDFLKCMVYNIPKKRYWLFKGPIDSGKTTLAAALLELCGGKALNVNLPLDRLNFELGVAIDQFLVVFEDVKGTGGESRDLPSGQGINNLDNLRDYLDGSVKVNLEKKHLNKRTQIFPPGIVTMNEYSVPKTLQARFVKQIDFRPKDYLKHCLERSEFLLEKRIIQSGIALLLMLIWYRPVAEFAQSIQSRIVEWKERLDKEFSLSVYQKMKFNVAMGIGVLDWLRNSDDDDEDSQENADKNEDGGEKNMEDSGHETGIDSQSQGSFQAPQSSQSVHDHNQPYHICRGFTCFKKPPTPPPEPET
notes: Two-hybrid control
B7: GAL4 DNA-binding domain fusion to Drosophila MAD (other, UniProt P04386 1-147, looked up)
chain: MKLLSSIEQACDICRLKKLKCSKEKPKCAKCLKNNWECRYSPKTKRSPLTRAHLTEVESRLERLEQLFLLIFPREDLDMILKMDSLQDIKALLTGLFVQDNVNKDAVTDRLASVETDMPLTLRQHRISATSSSEESSNKGQRQLTVSMDTDDVESNTSSAMSTLGSLFSFTSPAVKKLLGWKQGDEEEKWAEKAVDSLVKKLKKRKGAIEELERALSCPGQPSKCVTIPRSLDGRLQVSHRKGLPHVIYCRVWRWPDLQSHHELKPLELCQYPFSAKQKEVCINPYHYKRVESPVLPPVLVPRHSEFAPGHSMLQFNHVAEPSMPHNVSYSNSGFNSHSLSTSNTSVGSPSSVNSNPNSPYDSLAGTPPPAYSPSEDGNSNNPNDGGQLLDAQMGDVAQVSYSEPAFWASIAYYELNCRVGEVFHCNNNSVIVDGFTNPSNNSDRCCLGQLSNVNRNSTIENTRRHIGKGVHLYYVTGEVYAECLSDSAIFVQSRNCNYHHGFHPSTVCKIPPGCSLKIFNNQEFAQLLSQSVNNGFEAVYELTKMCTIRMSFVKGWGAEYHRQDVTSTPCWIEIHLHGPLQWLDKVLTQMGSPHNAISSVS
notes: Yeast two-hybrid bait; also called Dros; MAD; MAD bait protein
B8: GAL4 DNA-binding domain-fchd540 fusion (other, UniProt P04386 1-147, looked up)
chain: MKLLSSIEQACDICRLKKLKCSKEKPKCAKCLKNNWECRYSPKTKRSPLTRAHLTEVESRLERLEQLFLLIFPREDLDMILKMDSLQDIKALLTGLFVQDNVNKDAVTDRLASVETDMPLTLRQHRISATSSSEESSNKGQRQLTVSMFRTKRSALVRRLWRSRAPGGEDEEEGAGGGGGGGELRGEGATDSRAHGAGGGGPGRAGCCLGKAVRGAKGHHHPHPPAAGAGAAGGAEADLKALTHSVLKKLKERQLELLLQAVESRGGTRTACLLLPGRLDCRLGPGAPAGAQPAQPPSSYSLPLLLCKVFRWPDLRHSSEVKRLCCCESYGKINPELVCCNPHHLSRLCELESPPPPYSRYPMDFLKPTADCPDAVPSSAETGGTNYLAPGGLSDSQLLLEPGDRSHWCVVAYWEEKTRVGRLYCVQEPSLDIFYDLPQGNGFCLGQLNSDNKSQLVQKVRSKIGCGIQLTREVDGVWVYNRSSYPIFIKSATLDNPDSRTLLVHKVFPGFSIKAFDYEKAYSLQRPNDHEFMQQPWTGFTVQISFVKGWGQCYTRQFISSCPCWLEVIFNSR
notes: Yeast two-hybrid bait; also called fchd540 bait protein; pGBT9-fchd540
B9: GAL4 DNA-binding domain fusion to rchd534 (other, UniProt P04386 1-147, looked up)
chain: MKLLSSIEQACDICRLKKLKCSKEKPKCAKCLKNNWECRYSPKTKRSPLTRAHLTEVESRLERLEQLFLLIFPREDLDMILKMDSLQDIKALLTGLFVQDNVNKDAVTDRLASVETDMPLTLRQHRISATSSSEESSNKGQRQLTVSMSRMGKPIETQKSPPPPYSRLSPRDEYKPLDLSDSTLSYTETEATNSLITAPGEFSDASMSPDATKPSHWCSVAYWEHRTRVGRLYAVYDQAVSIFYDLPQGSGFCLGQLNLEQRSESVRRTRSKIGFGILLSKEPDGVWAYNRGEHPIFVNSPTLDAPGGRALVVRKVPPGYSIKVFDFERSGLQHAPEPDAADGPYDPNSVRISFAKGWGPCYSRQFITSCPCWLEILLNNPR
notes: Yeast two-hybrid bait; also called rchd534 bait protein

Legend:
[1] = molecular target: T1, GAL4 DNA-binding domain fusion to DPC4 (UniProt P04386 1-147; Q13485 1-552, limits assumed); assay: yeast two-hybrid mating assay (HIS3 and lacZ reporters)
T1 construct: Yeast two-hybrid bait; also called DPC4 bait protein
Description: (§1) Yeast expression plasmids encoding the GAL4 DNA-binding domain either alone or fused in frame to fchd540, rchd534, Drosophilia MAD, DPC4, or p53 were transformed into MATa two-hybrid screening strain HF7c. Yeast expression plasmnids encoding the GAL4 transcriptional activation domain alone and GAL4 activation domain fusions to rchd534 and SV40 were transformed into MATα two-hybrid screening strain Y1 87. p53 and SV40 interact with each other and should not interact with the experimental proteins. The HF7c transformants were propagated as stripes on semisolid synthetic complete medium lacking L-tryptophan and the Y187 transformants were grown as stripes on semisolid synthetic complete medium lacking L-leucine. Both sets of stripes were replica plated in the form of a grid onto a single rich YPAD plate and the haploid strains of opposite mating types were allowed to mate overnight at 30° C. The yeast strains on the mating plate were then replica plated to a synthetic complete plate lacking L-leucine and L-tryptophan to select for diploids and incubated at 30° C. overnight. Diploid strains on the synthetic complete plate lacking L-leucine and L-tryptophan were replica plated to a synthetic complete plate lacking L-leucine, L-tryptophan, and L-histidine to assay HIS3 expression and a paper filter on a synthetic complete plate lacking L-leucine and L-tryptophan. The next day the paper filter was subjected to the paper filter beta-galactosidase assay to measure expression of the lacZ reporter gene. HIS3 expression was scored after 3 days of growth at 30° C.
(§2) It was confirmed that these rchd534 cDNAs encode proteins that physically interact specifically with fchd540. Yeast expression plasmids encoding the GAL4 DNA-binding domain either alone or fused in frame to fchd540, rchd534, Drosophila MAD, DPC4, and p53 were transformed into MATa two-hybrid screening strain HF7c. Yeast expression plasmids encoding the GAL4 transcriptional activation domain (GAL4 AD) alone and GAL4 activation domain fusions to tchv03a, tchvR4A and SV40 were transformed into MATα two-hybrid screening strain Y1 87. p53 and SV40 interact with each other and should not interact with the experimental proteins. The HF7c transformants were propagated as stripes on semi-solid synthetic complete medium lacking […].

[2] = molecular target: B7; assay: as above
Description: as §1, §2

[3] = molecular target: T2, GAL4 DNA-binding domain alone (UniProt P04386 1-147); assay: as above
T2 construct: Two-hybrid control
Description: as §1, §2

[4] = molecular target: B8; assay: as above
Description: as §1, §2

[5] = molecular target: B9; assay: as above
Description: as §1, §2

[6] = molecular target: T3, fchd540 protein fused to a flag peptide (transfected 293 cells or BAECs) (human, UniProt O15105 1-426); assay: co-immunoprecipitation, BAECs against 293 cells, equal amounts of protein
T3 construct: Co-immunoprecipitation construct; not shown: flag peptide (different from that on rchd534)
T3 sequence (looked up): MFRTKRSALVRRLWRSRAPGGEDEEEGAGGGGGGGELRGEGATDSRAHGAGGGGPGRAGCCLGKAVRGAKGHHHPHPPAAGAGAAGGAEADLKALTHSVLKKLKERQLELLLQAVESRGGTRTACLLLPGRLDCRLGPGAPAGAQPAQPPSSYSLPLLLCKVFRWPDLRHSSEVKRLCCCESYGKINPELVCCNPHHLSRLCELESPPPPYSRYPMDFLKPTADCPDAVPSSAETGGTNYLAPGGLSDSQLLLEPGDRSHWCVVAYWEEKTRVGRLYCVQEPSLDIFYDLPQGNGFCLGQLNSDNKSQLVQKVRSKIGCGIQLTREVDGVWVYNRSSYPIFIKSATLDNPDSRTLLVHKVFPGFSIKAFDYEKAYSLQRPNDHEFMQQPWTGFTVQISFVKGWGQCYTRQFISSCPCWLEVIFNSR
Procedure: The interaction of the rchd534 and fchd540 proteins, observed in yeast cells as described above, was tested in mammalian endothelial cell tissue culture. Either bovine aortic endothelial cells (BAECs) or 293 cells (human embryonic kidney cells, ATCC Accession No. CRL-1573) were transfected with constructs encoding both the rchd534 and fchd540 proteins, each fused to a different flag peptide allowing for specific immunoprecipitation. […] The co-immunoprecipitation of rchd534 and fchd540 further supports that these proteins interact in human cells that are physiologically relevant to cardiovascular disease.
The ability of the rchd534 and fchd540 proteins to interact with themselves and with other protein members of the TGF-β signalling pathway (MADR1, MADR2, DPC4, TbR1, TSR1, ActR1b, ALK3, ALK6), was tested using this co-inmunoprecipitation method. Each gene was transfected alone and in various combinations with other TGF-β pathway genes in either 293 cells or BAECs. The rchd534 protein formed homodimers in 293 cells and BAECs. […] As mentioned above, the rchd534 and fchd540 proteins formed heterodimers in 293 cells and BAECs. This interaction is about 50 fold stronger in BAECs than 293 cells based on equal amounts of protein.

[7] = molecular target: B1; assay: yeast two-hybrid mating assay (HIS3 and lacZ reporters)
Description: as §1, §2

B1: no binding [1].

B2: GAL4 transcriptional activation domain alone (other, UniProt P04386 768-881, looked up)
chain: ANFNQSGNIADSSLSFTFTNSSNGPNLITTQTNSQALSQPIASSNVHDNFMNNEITASKIDDGNNSKPLSPGWTDQTAYNAFGITTGMFNTTTMDDVYNYLFDDEDTPPNPKKE
notes: Two-hybrid control; also called GAL4 AD alone; GAL4 AD
B2: no binding [2]; no binding [3]; no binding [1]. B2: no binding [4]; no binding [5].

B3: tchv03A (GAL4 activation domain fusion to amino acids 17-235 of rchd534) (other, not shown: large carriers)
chain: PYSRLSPRDEYKPLDLSDSTLSYTETEATNSLITAPGEFSDASMSPDATKPSHWCSVAYWEHRTRVGRLYAVYDQAVSIFYDLPQGSGFCLGQLNLEQRSESVRRTRSKIGFGILLSKEPDGVWAYNRGEHPIFVNSPTLDAPGGRALVVRKVPPGYSIKVFDFERSGLQHAPEPDAADGPYDPNSVRISFAKGWGPCYSRQFITSCPCWLEILLNNPR
notes: Library clone from the human breast two-hybrid library; also called tchv03A fish protein
B3: no binding [2]; no binding [1]; no binding [5].

B4: tchvR4A (GAL4 activation domain fusion to amino acids 25-235 of rchd534) (other, not shown: large carriers)
chain: DEYKPLDLSDSTLSYTETEATNSLITAPGEFSDASMSPDATKPSHWCSVAYWEHRTRVGRLYAVYDQAVSIFYDLPQGSGFCLGQLNLEQRSESVRRTRSKIGFGILLSKEPDGVWAYNRGEHPIFVNSPTLDAPGGRALVVRKVPPGYSIKVFDFERSGLQHAPEPDAADGPYDPNSVRISFAKGWGPCYSRQFITSCPCWLEILLNNPR
notes: Library clone from the human breast two-hybrid library; also called tchvR4A fish protein
B4: no binding [2]; no binding [1]; no binding [5].

B5: rchd534 protein fused to a flag peptide (transfected 293 cells or BAECs) (other, human, UniProt O43541-2 1-235, looked up)
chain: MSRMGKPIETQKSPPPPYSRLSPRDEYKPLDLSDSTLSYTETEATNSLITAPGEFSDASMSPDATKPSHWCSVAYWEHRTRVGRLYAVYDQAVSIFYDLPQGSGFCLGQLNLEQRSESVRRTRSKIGFGILLSKEPDGVWAYNRGEHPIFVNSPTLDAPGGRALVVRKVPPGYSIKVFDFERSGLQHAPEPDAADGPYDPNSVRISFAKGWGPCYSRQFITSCPCWLEILLNNPR
notes: Co-immunoprecipitation construct; also called Smad6; not shown: flag peptide for immunoprecipitation
B5 was tested, and the “fold stronger interaction in BAECs than in 293 cells” value [6] was roughly 50 fold.

B6: GAL4 transcriptional activation domain-rchd534 fusion (other, human, UniProt O43541-2 1-235, looked up, not shown: large carriers)
chain: MSRMGKPIETQKSPPPPYSRLSPRDEYKPLDLSDSTLSYTETEATNSLITAPGEFSDASMSPDATKPSHWCSVAYWEHRTRVGRLYAVYDQAVSIFYDLPQGSGFCLGQLNLEQRSESVRRTRSKIGFGILLSKEPDGVWAYNRGEHPIFVNSPTLDAPGGRALVVRKVPPGYSIKVFDFERSGLQHAPEPDAADGPYDPNSVRISFAKGWGPCYSRQFITSCPCWLEILLNNPR
notes: Yeast two-hybrid fish; also called rchd534 fish protein; Smad6
B6: no binding [2]; no binding [1].

B7: no binding [7].

B8: no binding [7].

B9: no binding [7].
